Earlier results, collected in PMC4965143.
Where two headings read alike, the source gives them in different places.

How the values were obtained:
[1] = target: PGC-1α coactivator peptide (Homo sapiens) (UniProt Q9UBK2)
[2] = target: PGC-1α coactivator peptide (Homo sapiens) (UniProt Q9UBK2); remark: listed apart in the source

Sequence of UniProt Q9UBK2 (Q9UBK2 whole entry): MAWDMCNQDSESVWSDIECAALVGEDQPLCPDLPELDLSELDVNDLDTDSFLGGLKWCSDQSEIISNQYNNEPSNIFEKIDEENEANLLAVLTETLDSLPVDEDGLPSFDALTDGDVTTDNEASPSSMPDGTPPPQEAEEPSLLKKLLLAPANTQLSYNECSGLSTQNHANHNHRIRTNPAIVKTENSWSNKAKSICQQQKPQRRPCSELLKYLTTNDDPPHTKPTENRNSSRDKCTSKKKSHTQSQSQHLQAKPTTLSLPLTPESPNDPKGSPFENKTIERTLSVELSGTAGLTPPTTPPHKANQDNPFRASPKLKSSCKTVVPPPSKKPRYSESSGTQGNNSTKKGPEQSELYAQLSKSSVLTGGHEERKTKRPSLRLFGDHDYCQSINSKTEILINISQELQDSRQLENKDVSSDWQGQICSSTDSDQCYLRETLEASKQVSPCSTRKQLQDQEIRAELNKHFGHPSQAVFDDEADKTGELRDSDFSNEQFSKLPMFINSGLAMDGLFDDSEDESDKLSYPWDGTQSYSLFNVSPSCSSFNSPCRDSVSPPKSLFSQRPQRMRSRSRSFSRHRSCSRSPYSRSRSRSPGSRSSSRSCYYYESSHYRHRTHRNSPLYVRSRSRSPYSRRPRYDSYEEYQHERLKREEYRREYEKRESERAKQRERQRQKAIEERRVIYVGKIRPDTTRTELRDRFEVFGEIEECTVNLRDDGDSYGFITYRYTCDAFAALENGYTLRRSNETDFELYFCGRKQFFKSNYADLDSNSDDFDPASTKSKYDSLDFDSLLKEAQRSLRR

Substance: SF-1 LBD (from UniProt Q13285)
- Kd [1]: 8.5 µM
- Kd [2]: 6 µM
